Target: panel of 118 tier 2,3 viruses
Test: cell-based or functional assay

B1: N60-B1.1 (antibody, V domains shown)
VH: QLQLQESGPGLVKPSGTLSLTCSVSGGSMNGRNIYWAWIRQTPGKGLEWIGSVDVSDEDAGRTFYKWPIKSRASISADTSKNQFSLKLSSVTVADTGVYYCARETLYYVGNGYYYPLDVFYYNYYMDVWGKGTTVSVSSASTKG
VL: not shown
What does the source list for B1?
% of neutralized viruses: 40.2%; Median IC50 (ug/ml), neutralization: 0.37 µg/mL; average IC50, neutralization (TZM-bl assay): 0.44 µg/mL

— patent publication US20150299268A1
